The results in this text go back to patent US20240392001A1 (University of Texas, published 2024).

For test [1], the target named is T1, LILRB2 (UniProt Q8N423 22-460, limits assumed).
T1 construct: Panning used recombinantly expressed LILRB2-His; also called Leukocyte Immunoglobulin-like Receptor subfamily B member 2; LILRB2-His
Put plainly: ELISA of phage display clone on LILRB2. In general terms: In an ELISA, binding on a coated surface is turned into a signal by an enzyme label.

The target in test [2] is T2, LILRB2-chimeric reporter receptor on reporter cells (UniProt Q8N423 22-460). In words: cell-based or functional assay.
T2 sequence (Q8N423 22-460, change not shown): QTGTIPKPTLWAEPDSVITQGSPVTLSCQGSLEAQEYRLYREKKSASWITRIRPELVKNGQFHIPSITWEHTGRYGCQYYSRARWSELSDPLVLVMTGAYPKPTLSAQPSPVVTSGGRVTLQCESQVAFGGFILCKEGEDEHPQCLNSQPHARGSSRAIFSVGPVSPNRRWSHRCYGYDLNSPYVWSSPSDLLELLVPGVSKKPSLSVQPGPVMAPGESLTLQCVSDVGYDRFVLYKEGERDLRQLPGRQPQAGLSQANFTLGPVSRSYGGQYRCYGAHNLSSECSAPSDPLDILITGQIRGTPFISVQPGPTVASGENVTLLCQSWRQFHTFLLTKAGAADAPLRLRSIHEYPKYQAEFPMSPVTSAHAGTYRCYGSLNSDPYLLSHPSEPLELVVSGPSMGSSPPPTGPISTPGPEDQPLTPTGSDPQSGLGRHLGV
Test [3] concerns the target T1, LILRB2. Put plainly: BLI, Octet Red96. The protocol:
Kinetic binding parameters (KD, kₒₙ, and koff) were determined using Octet Red96 instrument (ForteBio; Fremont, CA).

Test [4] deals with T3, recombinantly produced LILRB2 extracellular domain (ECD) protein (UniProt Q8N423 22-460, limits assumed).
T3 construct: extracellular domain; A LILRB2-His protein was used for panning; also called plate-coated LILRB2; LILRB2 ECD
T3 sequence (Q8N423 22-460 limits assumed): as the sequence (Q8N423 22-460, change not shown) above
In words: ELISA, plate-coated LILRB2, anti-human F(ab)2 HRP detection. The protocol: Antibody binding affinity to LILRB2 were measured by ELISA. Increasing concentrations of purified LILRB2 antibodies were incubated with plate-coated LILRB2. The bound antibody was detected by anti-human F(ab)2 HRP, and the signals were quantified as OD₄₅₀ values. EC₅₀ values (Table 5) were calculated using non-linear curve fitting function Sigmoidal dose-response (variable slope) in GraphPad Prism.

Test [5] deals with T2, LILRB2-chimeric reporter receptor on …. Put plainly: cell-based or functional assay. The source holds these as a separate data set.
Test [6] has as its target T4, LILRB2 expressed on the surface of HEK293T cells (UniProt Q8N423 22-597, limits assumed).
T4 construct: whole, on cells; also called HEK293T cells that express LILRB2
Put plainly: flow cytometry on HEK293T cells expressing LILRB2, MFI fold over control; sheet also prints 95%CI=0.19-0.31 µg/mL. A general note: In flow cytometry, cells or beads pass a laser one at a time.

T1 sequence (Q8N423 22-460 limits assumed): as the sequence (Q8N423 22-460, change not shown) above
T4 sequence (Q8N423 22-597 limits assumed): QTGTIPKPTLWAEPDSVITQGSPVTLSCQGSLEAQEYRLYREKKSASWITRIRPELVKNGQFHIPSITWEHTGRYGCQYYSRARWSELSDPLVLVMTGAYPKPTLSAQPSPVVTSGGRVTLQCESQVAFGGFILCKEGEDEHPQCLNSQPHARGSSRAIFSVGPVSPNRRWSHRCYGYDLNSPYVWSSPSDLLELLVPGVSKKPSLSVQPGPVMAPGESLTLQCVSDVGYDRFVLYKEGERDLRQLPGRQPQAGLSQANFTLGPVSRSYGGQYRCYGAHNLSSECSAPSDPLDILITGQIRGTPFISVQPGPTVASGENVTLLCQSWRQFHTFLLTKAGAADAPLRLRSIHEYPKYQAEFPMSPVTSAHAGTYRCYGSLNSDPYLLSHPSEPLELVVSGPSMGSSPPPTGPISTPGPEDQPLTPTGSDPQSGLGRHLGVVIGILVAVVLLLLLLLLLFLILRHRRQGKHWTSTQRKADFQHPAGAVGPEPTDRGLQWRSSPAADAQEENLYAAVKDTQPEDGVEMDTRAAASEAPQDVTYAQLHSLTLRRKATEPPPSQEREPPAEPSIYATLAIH

B1: NeuB2-128 (antibody, V domains shown)
VH: QVQLQQSGAEVKKPGSSVKVSCKASGGTFSSYAISWVRQAPGQGLEWMGGIIPIFGTANYTQKFQGRVTITADESTSTAYMELSSLRSEDTAVYYCARGPSGSPYGMDVWGQGTTVIVSS
VL: not shown
notes: Human antibody from a phage library; also called 128-HC/128-LC
Regarding B1, in test [1], the “OD450 in ELISA assay” value was 0.446.

B2: NeuB2-55 (antibody, V domains shown)
VH: EVQLVQSGAEVKKPGSSVKVSCKASGGTFSSYAISWVRQAPGQGLEWMGGIIPIFGTANYAQKFQGRVTITADESTSTAYMELSSLRSEDTAVYYCARGVDQVDYWGQGTLVTVSS
VL: QAVVTQPASVSGSPGQSITISCTGTSSDVGGYNYVSWYQQHPGKAPKLMIYDVSNRPSGVSNRFSGSKSGNTASLTISGLQAEDEADYYCSSYTSSSTPYVFGTGTKVTVL
notes: also called Ab55; 55-HC/55-LC
As a reminder, the Kd is the concentration at which binding is half-saturated. Read a high Kd as weaker binding. A word on the koff: it is a measure of how fast the partners let go of each other. Low values mean a long-lived complex, high ones a short-lived complex. In general, kon refers to the rate constant with which the complex forms. As to B2, the “IC50 (M); GFP signal of LILRB2-chimeric reporter cells on plate-coated oAβ” value (“IC50 (M); GFP signal” for short) in test [2] was determined as 1.89e-09 M. For the same molecule, in test [3], binding was characterised by a dissociation constant (Kd) of 56 nM, the koff was determined as 0.00723 s⁻¹ and the kon is 129000 M⁻¹ s⁻¹. Further, the EC50 in test [4] was found to be 0.175 nM. Also, the “IC50 (M); blocking of PS-LILRB2 interaction” value (“IC50 (M); blocking” below) in test [5] turned out to be 3.35e-10 M. In addition, the “OD450 in ELISA assay” value in test [1] turned out to be 0.886.

B3: NeuB2-93 (antibody, V domains shown)
VH: QVQLMQSGAEVKKPGSSVKVSCKASGGRFSSNVMSWVRQAPGQGLEWMGGIIPIFGTPKYAQKFQGRVTITADKSTSTAYMELSSLRSEDTAVYYCASGSTPFDAFDIWGQGTMVTVSS
VL: QPVLTQPASVSGSPGQSITISCTGTSSDVGGYNYVSWYQQHPGKAPKLMIYEVSNRPSGVSNRFSGSKSGNTASLTISGLQAEDEADYYCSSYTSSSTPWVFGGGTKVTVL
notes: also called Ab93; 93-HC/93-LC
Turning to B3, in test [2], the “IC50 (M); GFP signal” value was 3.81e-09 M. Also, in test [3], binding was characterised by a dissociation constant (Kd) of 83.9 nM, the koff was determined as 0.0103 s⁻¹ and the kon came out at 123000 M⁻¹ s⁻¹. Besides, the EC50 in test [4] stood at 0.159 nM. The “IC50 (M); blocking” value in test [5] turned out to be 4.45e-10 M. In test [1], the “OD450 in ELISA assay” value was 0.543.

B4: NeuB2-110 (antibody, V domains shown)
VH: QVQLVESGGGLVKPGGSLRLSCGISGFTFSDYYMSWIRQAPGKGLEWVSFIGTSGSTIYYADSVKGRFTISRDNANNSLFLQMNSLTVEDTAVYYCAREATSGTYFDYWGQGTLVSVSS
VL: QAVVTQPASVSGSPGQSITISCTGTSSDVGGYNYVSWYQQHPGKAPKLMIYEVTNRPSGVSNRFSGSKSGNTASLTISGLQAEDEADYYCSSYTSSSTPYVFGTGTKVTVL
notes: Human antibody from a phage library; also called 110-HC/110-LC
B4: the “OD450 in ELISA assay” value in test [1] amounted to 0.972.

B5: NeuB2-8 (antibody, V domains shown)
VH: QLQLQESGPGLVKPSQTLSLTCAISGGNVSSKSAAWNWIRQSPSRGLEWLGRTYYRSKWYNDYAVSVKSRITINPDTSKNQFSLQLKSVTPEDTAVYYCARSLGEGWFPYFYGMDVWGQGTTVTVSS
VL: QSVLTQPASVSGSPGQSITISCTGTNRDVGGYDYVSWYQQHPGKAPKLMIYGVSNRPSGISNRFSGSKSGSTASLTISGLQVEDEAAYYCSSYTASRTVVFGGGTKVTVL
notes: Human antibody from a phage library; also called 8-HC/8-LC
As for B5, the “OD450 in ELISA assay” value in test [1] was found to be 0.548.

B6: NeuB2-37 (antibody, V domains shown)
VH: QVQLMQSGAEVKKPGSSVKVSCKASGGTFSSYAISWVRQAPGQGLEWMGGIIPIFGTANYAQKFQGRVTITADESTSTAYMELSSLRSEDTAVYYCARGNHVLRFLEWLPNWFDPWGQGTLVTVSS
VL: not shown
notes: also called Ab37; 37-HC/37-LC
As for B6, the “IC50 (M); GFP signal” value in test [2] was 8.62e-10 M. In test [3], this molecule came in with a Kd of 8.45 nM, a koff of 0.0004 s⁻¹ and a kon of 47400 M⁻¹ s⁻¹. Also, in test [4], the EC50 worked out at 0.658 nM. Further, the “IC50 (M); blocking” value in test [5] came out at 2.93e-10 M. In test [1], the “OD450 in ELISA assay” value was determined as 0.417.

B7: NeuB2-19 (antibody, V domains shown)
VH: QVQLVESGGGVVRPGGSLRLSCAASGFTFDDYGMSWVRQAPGKGLEWVSGINWNGGSTGYADSVKGRFTISRDNAKNSLYLQMNSLRAEDTALYYCAREGDGAFDIWGQGTLVTVSS
VL: QAVVTQPPSASGTPGQRVTISCSGSGSNIRSNGVTWYQQFPGTAPKLLIYDNNQRPSGVPGRFSGSKSGTSGSLAISGLQSEDEADYYCAAWDDNLNAWVFGAGTQLTVL
notes: Human antibody from a phage library; also called 19-HC/19-LC
For B7, the “OD450 in ELISA assay” value in test [1] came to 0.663.

B8: NeuB2-29 (antibody, V domains shown)
VH: QVQLVETGGGVVQPGRSLRLSCAASGFTFSDYAMHWVRQAPGKGLEWVTLISYDGSQKYYADSVKGRFTISRDDSKNTVDLQMNSLKAEDTAVYYCAKFPSLNDNVGFDVWGQGTMVTVSS
VL: QSVLTQPPSVSGAPRERVTISCSGSTSNIENNAVNWYQQLPGKAPKLLIYYDDLVPSGVSDRFSGSKSGTSASLAISGLQSGDEAYYYCAVWDDSLNGPVFGGGTKVTVL
notes: also called Ab29; NewuB2-29
For the molecule B8, in test [2], the “IC50 (M); GFP signal” value was 3.44e-10 M. In test [3], this molecule displayed a Kd of 9 nM, a koff of 0.00151 s⁻¹ and a kon of 168000 M⁻¹ s⁻¹. Besides, the EC50 in test [4] is 0.137 nM. The EC50 in test [6] is 0.24 µg/mL. In addition, in test [5], the “IC50 (M); blocking” value is 1.42e-10 M. Moreover, the “OD450 in ELISA assay” value in test [1] was 0.819.

B9: NeuB2-80 (antibody, V domains shown)
VH: QVQLVQSGAEVKKPGASVKVSCKASGYTFTSYGISWVRQAPGQGLEWMGWISAYNGNTNYAQKLQGRVTMTTDTSTSTAYMELRSLRSDDTAVYYCARDGGGGYFDYWGQGTLVTVSS
VL: QAVVTQPPSASGTPGQRITISCSGSSSNIGKNIVNWYQQVPGAAPKLLIYNNSQRPSGVPDRFSGSKSGTSASLAISGLQSEDEADYYCAAWDDSLRSWLFGGGTKVTVL
notes: Human antibody from a phage library; also called 80-HC/80-LC
For the molecule B9, the “OD450 in ELISA assay” value in test [1] was determined as 0.64.

B10: NeuB2-9 (antibody, V domains shown)
VH: QVQLVQSGAEVKKPGASVKVSCKASGYTFTSYAMHWVRQAPGQRLEWMGWINAGNGNTKYSQKFQGRVTITRDTSASTAYMELSSLRSEDTAVYYCARDFMGYCSSTSCYGVTGAFDIWGQGTMVTVSS
VL: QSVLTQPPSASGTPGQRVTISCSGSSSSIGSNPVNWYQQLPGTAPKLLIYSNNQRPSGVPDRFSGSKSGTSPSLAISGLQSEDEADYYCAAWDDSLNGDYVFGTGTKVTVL
notes: Human antibody from a phage library; also called 9-HC/9-LC
Turning to B10, the “OD450 in ELISA assay” value in test [1] came out at 0.515.

B11: NeuB2-13 (antibody, V domains shown)
VH: QVQLVQSGAEVKKPGASVKVSCKASGYTFTSYYMHWVRQAPGQGLEWMGIINPSGGSTSYAQKFQGRVTMTRDTSTSTVYMELSSLRSEDTAVYYCAREDWGPFDYWGQGTTVTVSS
VL: DIQMTQSPSSLSASVGDRVTITCRASQSISNFVNWYQQKPGEVPKLLIYGASSLQSGVPSRFSGSGSGTDFTLTISSLQPEDFATYYCQQGYSVPLTFGGGTKVEIK
notes: Human antibody from a phage library; also called 13-HC/13-LC
On to B11, for which the “OD450 in ELISA assay” value in test [1] was determined as 0.552.

B12: NeuB2-40 (antibody, V domains shown)
VH: QVQLVQSGAEVKKPGASVKVSCKASGYTFTNYGISWVRQAPGQGLEWMGWISGDAGDTKFAQKFQGRVTMTTDTSTTTTYMELRSLRSDDTAVYYCARDGEYIPMFRGFDNYYGLDVWGQGTTVTVSS
VL: QPVLTQPPSVSEAPRQRVTISCSGSSSNIGKNAVNWYQQFPGKAPKLLIYYDDLLPSGVSDRFSGSRSGTSASLAISGLQSEDEADYYCAAWDDRLKGYVFGTGTQLTVL
notes: also called Ab40; 40-HC/40-LC
Turning to B12, the “IC50 (M); GFP signal” value in test [2] turned out to be 3.6e-09 M. In test [3], this molecule returned a Kd of 19.2 nM, a koff of 0.00471 s⁻¹ and a kon of 245000 M⁻¹ s⁻¹. The EC50 in test [4] was 0.0664 nM. In test [5], the “IC50 (M); blocking” value was found to be 3.54e-10 M. Also, in test [1], the “OD450 in ELISA assay” value came out at 0.276.

B13: NeuB2-60 (antibody, V domains shown)
VH: QVQLQESGPGLVKPSGTLSLTCAVSGGSITSSNWWSWVRQPPGKGLEWIGDISHSGSTNYNPSLKGRVTMSVDRSKNQFFLKLSSVTAADTAMYYCARAFHGMDVWGQGTTVTVSS
VL: QSVLTQPPSVSEAPRQRVTISCSGSSSNIANNAVNWYQQLPGKAPKLLIYYDDLLASGVSDRFSGSRSGTSAALAISGLQSEDEADYYCATWDDDLNGPIFGGGTKVTVL
notes: also called Ab60; 60-HC/60-LC
With B13, the “IC50 (M); GFP signal” value in test [2] amounted to 9.82e-10 M. In addition, in test [3], the Kd stood at 24.1 nM, the koff worked out at 0.00512 s⁻¹ and the kon is 212000 M⁻¹ s⁻¹. In addition, in test [4], the EC50 was determined as 0.161 nM. Also, the “IC50 (M); blocking” value in test [5] was 3.21e-10 M. In addition, in test [1], the “OD450 in ELISA assay” value came to 0.744.
